In publication PMC9132891, “Antigenic structure of the human coronavirus OC43 spike reveals exposed and occluded neutralizing epitopes” (Nature Communications, 2022):

Tests used:
Experiment in all cases: ELISA; S1 antigens coated; H2L2 mAbs at one concentration, 0.4 μg/ml; OD450nm
Details in all cases: both partners purified
[1] = target: T1, S1 of OC43 isolate USA/1990(B) (Human coronavirus OC43, USA/1990(B) …, strain)
T1 construct: source: HEK-293T, transient, purified from culture supernatant (Protein A sepharose)
T1 chain: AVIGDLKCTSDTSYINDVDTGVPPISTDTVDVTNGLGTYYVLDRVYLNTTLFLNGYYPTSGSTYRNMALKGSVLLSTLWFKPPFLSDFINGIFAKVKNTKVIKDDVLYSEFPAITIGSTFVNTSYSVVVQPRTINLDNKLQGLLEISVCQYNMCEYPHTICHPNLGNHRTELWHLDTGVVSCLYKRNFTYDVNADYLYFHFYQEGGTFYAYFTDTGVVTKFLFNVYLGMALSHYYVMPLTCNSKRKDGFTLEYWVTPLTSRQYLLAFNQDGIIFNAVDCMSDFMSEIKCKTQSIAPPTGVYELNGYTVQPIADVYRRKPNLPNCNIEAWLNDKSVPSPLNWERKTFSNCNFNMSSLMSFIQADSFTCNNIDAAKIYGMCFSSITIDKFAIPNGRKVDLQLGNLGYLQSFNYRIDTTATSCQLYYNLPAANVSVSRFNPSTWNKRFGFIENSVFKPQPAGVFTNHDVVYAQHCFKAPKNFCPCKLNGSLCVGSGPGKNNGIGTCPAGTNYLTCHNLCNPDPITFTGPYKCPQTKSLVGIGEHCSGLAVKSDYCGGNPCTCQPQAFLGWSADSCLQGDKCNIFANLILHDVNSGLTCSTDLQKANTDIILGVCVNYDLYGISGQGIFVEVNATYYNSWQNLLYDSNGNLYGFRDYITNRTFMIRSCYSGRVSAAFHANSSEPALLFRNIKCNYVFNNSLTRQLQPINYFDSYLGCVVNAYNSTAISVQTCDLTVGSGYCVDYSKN

[2] = target: T2, S1 of OC43 isolate USA/1990(A-II) (Human coronavirus OC43, USA/1990(A-II) …, strain)
T2 construct: source: HEK-293T, transient, purified from culture supernatant (Protein A sepharose)
T2 chain: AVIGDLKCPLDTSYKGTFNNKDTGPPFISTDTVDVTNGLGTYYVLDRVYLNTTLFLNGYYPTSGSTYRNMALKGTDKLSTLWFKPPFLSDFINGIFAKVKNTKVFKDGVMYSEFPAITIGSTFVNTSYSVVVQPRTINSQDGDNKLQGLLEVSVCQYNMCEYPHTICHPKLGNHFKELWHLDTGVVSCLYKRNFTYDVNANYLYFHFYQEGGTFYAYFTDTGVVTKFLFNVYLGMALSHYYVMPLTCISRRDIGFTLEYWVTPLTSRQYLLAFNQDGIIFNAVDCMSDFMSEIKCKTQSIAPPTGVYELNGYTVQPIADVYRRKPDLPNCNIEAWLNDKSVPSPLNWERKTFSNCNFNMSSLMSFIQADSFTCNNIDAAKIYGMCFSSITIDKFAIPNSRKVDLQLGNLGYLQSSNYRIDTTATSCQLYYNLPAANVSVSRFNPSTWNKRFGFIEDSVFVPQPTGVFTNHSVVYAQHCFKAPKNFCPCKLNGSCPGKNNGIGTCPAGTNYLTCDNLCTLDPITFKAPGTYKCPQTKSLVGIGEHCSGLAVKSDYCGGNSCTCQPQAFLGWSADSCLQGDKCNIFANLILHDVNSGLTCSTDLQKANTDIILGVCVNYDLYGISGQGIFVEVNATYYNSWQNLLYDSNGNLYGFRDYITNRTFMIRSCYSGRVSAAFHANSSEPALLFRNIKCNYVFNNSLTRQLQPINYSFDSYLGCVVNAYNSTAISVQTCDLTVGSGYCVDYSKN

[3] = target: T3, S1 of OC43 isolate BE/2004 (Human coronavirus OC43, BE/2004, UniProt Q4VID5, strain)
T3 construct: source: HEK-293T, transient, purified from culture supernatant (Protein A sepharose)

[4] = target: T4, S1 of OC43 isolate NL/2004 (Human coronavirus OC43, NL/2004, strain)
T4 construct: source: HEK-293T, transient, purified from culture supernatant (Protein A sepharose)
T4 chain: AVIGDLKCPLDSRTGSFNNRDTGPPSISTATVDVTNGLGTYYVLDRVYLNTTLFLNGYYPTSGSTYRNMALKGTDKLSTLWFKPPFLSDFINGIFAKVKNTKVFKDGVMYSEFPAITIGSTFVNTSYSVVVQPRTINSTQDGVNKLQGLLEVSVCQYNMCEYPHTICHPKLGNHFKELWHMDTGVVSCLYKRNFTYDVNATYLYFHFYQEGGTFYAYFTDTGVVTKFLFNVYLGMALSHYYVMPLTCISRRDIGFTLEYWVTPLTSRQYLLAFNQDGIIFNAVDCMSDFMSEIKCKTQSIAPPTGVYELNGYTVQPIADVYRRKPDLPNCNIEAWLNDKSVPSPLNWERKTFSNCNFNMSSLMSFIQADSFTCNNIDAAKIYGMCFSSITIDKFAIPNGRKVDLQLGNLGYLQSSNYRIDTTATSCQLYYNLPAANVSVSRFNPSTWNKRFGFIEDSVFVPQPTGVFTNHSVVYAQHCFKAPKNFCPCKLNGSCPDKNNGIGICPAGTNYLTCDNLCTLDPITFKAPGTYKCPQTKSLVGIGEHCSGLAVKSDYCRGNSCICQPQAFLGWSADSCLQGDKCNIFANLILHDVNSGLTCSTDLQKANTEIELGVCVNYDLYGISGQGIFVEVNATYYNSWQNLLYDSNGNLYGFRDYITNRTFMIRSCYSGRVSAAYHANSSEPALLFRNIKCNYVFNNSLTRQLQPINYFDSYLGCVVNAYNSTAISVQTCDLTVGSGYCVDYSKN

[5] = target: T5, S1 of OC43 isolate NL/2019 (Human coronavirus OC43, NL/2019, strain)
T5 construct: source: HEK-293T, transient, purified from culture supernatant (Protein A sepharose)
T5 chain: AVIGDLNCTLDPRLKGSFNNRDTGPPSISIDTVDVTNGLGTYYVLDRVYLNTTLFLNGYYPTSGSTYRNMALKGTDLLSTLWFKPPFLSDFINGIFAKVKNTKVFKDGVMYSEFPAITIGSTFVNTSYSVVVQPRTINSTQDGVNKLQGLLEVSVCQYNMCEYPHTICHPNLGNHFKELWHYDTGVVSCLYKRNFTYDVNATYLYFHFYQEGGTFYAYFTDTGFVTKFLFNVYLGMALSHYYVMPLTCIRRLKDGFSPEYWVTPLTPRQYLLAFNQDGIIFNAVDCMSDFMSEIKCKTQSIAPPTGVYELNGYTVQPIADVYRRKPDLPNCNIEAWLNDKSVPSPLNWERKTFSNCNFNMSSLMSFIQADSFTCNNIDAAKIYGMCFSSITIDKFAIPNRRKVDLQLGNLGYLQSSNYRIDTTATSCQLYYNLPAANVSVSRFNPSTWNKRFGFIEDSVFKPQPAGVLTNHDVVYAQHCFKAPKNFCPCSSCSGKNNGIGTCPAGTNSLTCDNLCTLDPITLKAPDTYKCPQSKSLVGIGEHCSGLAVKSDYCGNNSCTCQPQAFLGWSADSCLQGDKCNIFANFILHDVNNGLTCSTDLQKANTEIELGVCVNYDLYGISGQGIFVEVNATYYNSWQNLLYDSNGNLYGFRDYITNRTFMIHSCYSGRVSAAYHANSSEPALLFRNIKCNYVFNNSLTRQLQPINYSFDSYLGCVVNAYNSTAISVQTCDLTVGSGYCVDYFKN

[6] = target: T6, S1 of equine coronavirus (ECoV), strain NC99 (Equine coronavirus, strain NC99, UniProt A8R4D0, strain)
T6 construct: also called ECoV S1; source: HEK-293T, purified (Protein A sepharose)

[7] = target: T7, S1 of bovine coronavirus (BCoV), strain Mebus (Bovine coronavirus (strain Mebus) …, UniProt P15777)
T7 construct: also called BCoV S1; source: HEK-293T, purified (Protein A sepharose)
T7 sequence (P15777 14-763): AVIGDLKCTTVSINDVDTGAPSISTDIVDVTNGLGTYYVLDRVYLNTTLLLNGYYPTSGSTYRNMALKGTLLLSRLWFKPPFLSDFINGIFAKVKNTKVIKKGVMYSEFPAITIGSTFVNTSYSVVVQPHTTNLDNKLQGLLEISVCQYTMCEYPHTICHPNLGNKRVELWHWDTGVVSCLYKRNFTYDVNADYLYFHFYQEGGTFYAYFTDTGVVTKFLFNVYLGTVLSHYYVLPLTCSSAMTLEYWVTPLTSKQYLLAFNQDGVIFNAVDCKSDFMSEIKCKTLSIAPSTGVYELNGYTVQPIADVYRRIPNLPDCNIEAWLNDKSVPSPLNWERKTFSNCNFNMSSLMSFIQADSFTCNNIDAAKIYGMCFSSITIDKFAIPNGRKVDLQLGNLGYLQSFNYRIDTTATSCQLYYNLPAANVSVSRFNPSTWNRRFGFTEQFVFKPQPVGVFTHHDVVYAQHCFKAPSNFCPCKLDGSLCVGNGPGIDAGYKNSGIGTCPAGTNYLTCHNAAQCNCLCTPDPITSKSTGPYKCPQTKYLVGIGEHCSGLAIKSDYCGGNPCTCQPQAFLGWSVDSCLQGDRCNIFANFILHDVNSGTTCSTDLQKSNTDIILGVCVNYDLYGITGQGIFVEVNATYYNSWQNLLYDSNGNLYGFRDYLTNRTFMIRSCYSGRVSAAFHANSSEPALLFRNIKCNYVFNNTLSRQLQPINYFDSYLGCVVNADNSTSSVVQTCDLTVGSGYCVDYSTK

Measured: binding result

B1: 56E10 H2L2 monoclonal antibody (antibody, V domains shown)
VH: QVQLQESGPGLVKPSETLSLTCTVSGGSISGYYWSWIRQPPGKGLEWIGYIFYNGNTNYNPSLKSRVTTSLDTSKNQFSLKLISVTGADTAVYYCVRTSLYYFDYWGQGTLVTVSS
VL: DIQMTQSPSSLSASVGDRVTITCQASQDISNFLNWYQQKPGKAPKLLIYDTSSLETGVPSRFSGSGSETDFTFTISSLQPEDIATYYCQQYDNLPLTFGGGTKVEIK
notes: also called 56E10 (H2L2 format)
not listed: [6] | [7]
binds: all other assays above

B2: 45B9 H2L2 monoclonal antibody (antibody, V domains shown)
VH: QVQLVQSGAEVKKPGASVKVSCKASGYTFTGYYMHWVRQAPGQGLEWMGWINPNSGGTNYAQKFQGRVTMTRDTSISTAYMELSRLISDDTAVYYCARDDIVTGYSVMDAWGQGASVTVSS
VL: DIQMTQSPSSLSASVGDRVTITCRASQSISNYLNWYQQKPGKAPTLLIYAASSLQSGVPSRFSGSGSGTDFTLTISSLQPEDFATYYCQPSYSSPYTFGQGTKLEIK
notes: also called 45B9 (H2L2 format)
binds: all assays above

B3: 65A11 H2L2 monoclonal antibody (antibody, V domains shown)
VH: QVQMVESGGGVVQPGRSLRLSCAASGFSFSSYGMHWVRQAPGKGLEWVAVIWSDVNYKFYADSVKGRFTISRDNSKNTLSLQMNSLRAEDTAVYYCARDSGLRYFDWDYRGYFDLWGRGTLVTVSS
VL: not shown
notes: also called 65A11 (H2L2 format)
binds: [7]
